Results: article PMC7948495, “The flexible N-terminus of BchL autoinhibits activity through interaction with its [4Fe-4S] cluster and released upon ATP binding” (The Journal of Biological Chemistry, 2020)

Biological target: BchNB (NB-protein of DPOR) from Rhodobacter sphaeroides (Rhodobacter sphaeroides)

kobs of Pchlide reduction measured as Chlide formation (with BchNB, Pchlide and ATP): 0.0148 µM/min
Substance: linked-BchL (two BchL subunits expressed as a single polypeptide, joined by a flexible linker) (enzyme)
